Drawing on patent publication US20260327294 (published 2026), this text covers Kd and EC50 for 19 molecules.

Changes are numbered by the printed parent chain. Some results are limits rather than exact numbers.

The labels stand for the following.
B1: F6-27 (antibody, V domains shown)
VH: QEQLMESGGDVVRPGTSLTLSCKASGFAFRSHALHWVRQAPGKGLEWVSVISYDGGHTNSADSLEGRFTVSRDNSKNILYLQMNSLRTEDTAVYFCARSEGSYRSWPGYFYYMDVWGNGTTVTVSS
VL: QSALTQPASVSGSPGQSITISCIGTSSDVGGYYYVSWYQQHPGRAPKLIIFDVTDRPSGVSSRFSGSQSGNTASLTISGLQPEDEADYYCNSYSSSTIPYVFGSGTKVTVL
B2: F6-63 (antibody, V domains shown)
VH: QVQVVESGGGVVEPGGSLSLSCAASGFSFKMHAMHWVRQAPGKGLEWVAFIPYDGSSQYYADSVKGRFTIYRDNFKNTLYLQMNSLRVEDTSLYYCARGGEEGAWSWIGYNSYMDVWGRGTAVTVSS
VL: QSALTQPASVSGSPGQSITISCSGTSSDVGGYDYVCWYQKHPGESPRLIIYDVSRRPSGVSNRFSGSKSGNTASLTISGLQAEDEADYSCSSYTSSNTLIFGGGTKLTVL
B3: F6-38 (antibody, V domains shown)
VH: QVQLEESGGGVVQPGRSLTLSCAASGFTLKNYAIHWVRQAPGKGLEWVAVTAYDGFTSYYADSVKSRITISRDNSKNTAYLHLNNVRDDDAAFYYCARGGEGAFSWLGYLQYMDVWGRGTTVAVSS
VL: QSTLTQPASASGSPGQSITISCTGTSNDIGSYTYVSWYQHHPGKAPKLMIYDVNERPSGISHRFSGSKSGNTASLTISGLQPEDEADYYCNSYTINNTLKFGGGTRLTVL
B4: F6-88 (antibody, V domains shown)
VH: QVQLVQSGAEVKKPGASVRVSCGASGNSFTRHGFSWVRQAPGQGLEWIGLISAHKSNTIYAQKFQGRVTVTTDTSTSTAYMELRSLRSDDTAVYYCVRDVTVVTDVGSGYDFPMDVWGQGTTVTVSS
VL: QSVLTQSPSASGTPGQRVTISCSGSNSNIGGDYVHWYQQVPGTAPRLLIYNTNQRPSGVPDRFSGSKSGTSGSLAISGLRSEDEADYYCATWDDSLNGWVFGGGTKLTVL
B5: F6-172 (antibody, V domains shown)
VH: EEQLVESGGGLVQPGGSLKLSCAASGFILSDSTVHWVRQASGRGLEWVGRIANGYATSYAASVKGRFTISTDDSGNTAYLEMNSLKTEDTAVYYCTSRSVVVTDVGAGRDDYWGQGTLVTVSS
VL: DIVMTQSPLSLPVTPGEPASISCRSSQSLLHRNGYNYLDWYLQKPGQSPQLLIWLGSNRASGVPDRFSGSGSGTDFTLTISRVEAEDVGVYYCMQDLQTPPTFGGGTKVEIM
B6: F6-61 (antibody, V domains shown)
VH: QVTLRQSGPALVKPTQTLTLTCTFSGFSLSTRGMCVNWIRQPPGKALEWLARIDWDDDKYYTTSLKTRLTISKDTAKNHVVLSMTNMDPVDTATYYCARIRCYDYVWGDDEVFDIWGQGTMVSVSS
VL: QSVLTQPPSASGTPGQSVTISCSGSTSNIGSNNVNWYQQLPGAAPKLVIHTNDQRPSRVPDRFSGSTSGTSASLAISGLQSEDEADYYCAAWDDSLNGLLFGGGTKLTVL
B7: F6-115 (antibody, V domains shown)
VH: QLQLHQRGAGLLKPSETLSLTCDVYGGSVSDDEWTWIRQSPGKGLEWIGQIDRTGSSNYNPSLRSRVTISPDTSNNQFSMSLTSVTAADTALYFCARGGLVVTDVGRGWDAFDVWGQGTMVTVSS
VL: DIQMTQSPSSVSASVGDRITITCRASQHINNWLAWYQQKPGEAPKLLIYAASTLQRGVPSRFSGSGSGTRFTLTITSLQPEDFASYFCQQGDSFPLTFGGGTKVEIK
B8: F6-70 (antibody, V domains shown)
VH: QVQLVESGGGVVQPGRSLRLSCAASGFTFKNFAMHWVRQAPGKGLEWVAAVSYDGTSKYQADSVKGRFTISRDNSKNTLYLQMNSLRAEDTAVYYCARVESSGSGHYSYLGYFYCMDVWGKGTTVTVSS
VL: QSALTQPASVSASPGQSITISCTGTRNDVGGYEYVSWYQQHPDKAPKLMIFDVSNRPSGVSNRFSGSKSGNTASLTISGLQAEDEADYYCSSYTINNTLVFGGGTKVTVL
B9: F6-133 (antibody, V domains shown)
VH: EVQVVESGGGLVQPGGSLRLSCAASSFSVTGSYMTWVRQAPGKGLESVSLIYSTGSTYYADSVKGRFVISRDDSKNILFLQMNNLRVEDTGVYFCARLGPAGGSWSWEFYGLDVWGQGTTVTVFS
VL: CVQMTQSPSFLSASVGDRVTISCRASQGTTSYLAWYQQKPGKAPKLLIYGVSTLQTGVPSRFSGSGSGTDFTLTISNLQPEDFATYYCQQVNIFPYTFGPGTKVEIK
B10: F6-227 (antibody, V domains shown)
VH: QVQLQQSGPGLVKPSETLSLACSVSGGSMSDFYWSWIRQSPGTGLEWIGYVHHSGKVNYNPSLKARVTMSLDTSKYLLSLNLASMTAADSAVYYCAATSAFVDSSSYSPPYFDFWGQGTLITVSS
VL: DIQLTQSPSSLSASVGDRVTITCQASHDITNYLNWYQQTPGKAPRLLIYVATNLETGVPSRFSGSGSGTHFTLTISSLQPEDSATYYCQQYDNLPITFGGGTRVEIR
B11: F6-210 (antibody, V domains shown)
VH: QERLAQSGTEVKKPGASVKVSCRALGYTFSDYSIHWVRQAPRQGLEWMGKINTSGGTTTYAQKFQARVTLTSDTSTSTASMELSSLKIEDTAVYYCVAYERATTLAGAGASDIWGQGTLVTVSS
VL: DIVMTQSPLSLPVTPGEPASISCRSSQSLLHSDGYNYLDWYLQKPGQSPHLLIYLGSNRASGVPDRFSGSGSGTDFTLKITRVEPEDVGVYYCMQSLQTPFTFGPGTKVDVK
B12: F6-132 (antibody, V domains shown)
VH: QEQSVQSGAEVKKPGASVKVSCRASEFTFSTDFIHWVRQAPGQGLEWMGRITPSDGTTTYAQKFQGRVTMTRDPSTNTVYIELRRLKSEDTAVYYCVAYDRVTTSAGTGASDIWGQGTMVTVSS
VL: B11 VL with S32G, Q47R, H50Q, N58H, K79R, T81S, P85A, V90I, S96G, V111I
B13: F6-207 (antibody, V domains shown)
VH: QITLKESGPTLLKPTQTLTLTCTFSGFSLTTTGVAVGWVRQPPGKALEWLALIYWDDDKRYSPSLKSRVTITKDTSKNQVLLAMTDMDPVDTATYYCAHFDYGDPEVVALFEYSYYMDVWGKGITVTVSS
VL: QSVLTQPPSVSGTPGQRVTISCSGSSSNIGSNYVYWYQHLPGTAPKLLIYTNNRRPSGVPDRFSGSKSGTSASLAVSGLRSEDEADYFCAVWDDSVGGHWVFGGGTKLTVL
B14: F6-153 (antibody, V domains shown)
VH: QVQLQQWGAGLLRPSETLSLTCAVSGVSLSGDYLTWIRQTPGKGLEWIGEINHSGSTNYNPSLKSRVTISVETSKNHFSLKMRSVTAADSALYYCARGWEYCHGTTCYSKAFDIWGQGTLVTVSS
VL: DIQMTQSPSSLSASVGDRVTITCQASQDISNYLIWYQQKPGRAPKLLIFDASKLEKGVPPRFSGSGSGTYFTFTISSLQPEDFATYYCQQFHNLPVTFGGGTKLETK
B15: F6-208 (antibody, V domains shown)
VH: QVQLEESGGGVVQPGTSLRLSCSSSGVTRNTYAVHWVRQVPGKGLEWLAATSYDGTSKYYPENGHGRVSISKEYSTNMVYLEIYNLRPEDTAVYFCAKGPQGIYSYIGYFYYMDVWGKGTTVTVSS
VL: QSALTQPASVSGSPGQSITLSCTGSRDDVGDYDYVSWYQHHPGKAPRLIIYDVTSRPSGVSPRFSGSKSGNTASLTISGLQADDEADYYCNSYTSSNSVVFGGGTKVTVL
B16: F6-124 (antibody, V domains shown)
VH: QVQLVQSGTEVKKPGASVKISCKASGYTFTGNAINWVRQAPGQGLEWLGWISVNNGNTKYVQKFQGRVTMTTDTSTSTAYMELRSLGSDDTAVYYCAREVVNYGSGSLNFDSWGQGTLVTVSS
VL: SYELTQPPSVSVSPGQTVSISCSGDKLGNDYVSWYQQKPGQSPVLVIYEDSKRPSGIPERFSGSNSGNTATLTISGTQAMDESDYYCQAWDGSTVIFGGGTKLTVL
B17: F6-141 (antibody, V domains shown)
VH: QVQLAQSGAEVRRPGTSVKVSCRSSAYDFIDDSIHWVRQAPGQGLEWMGRIDPSGDTTTYAPQFQVRITLTRDTSTSTASMELNRLTSQDTAMYYCVAYERATTLAGVGASDVWGQGTWVTVSS
VL: DIVMTQSPLSLSVTPGEPASISCRSSQSLLYRDGYNYLDWYLQKPGQSPQLLLYFASYRASGVPDRFSGSGSGTDFTLTITRVEPEDVGIYYCMQSLQTPFTFGPGTKLDFK
B18: F6-215 (antibody, V domains shown)
VH: QEQSVQSGPEVKKPGASVKVSCRASEFTFSTDFIHWVRQAPGQGLEWMGRITPSDGTTTYAPKFQGRVAVTRDPSTKNVYIQLTRLKSEDTAVYYCVAYDRATTSAGAGATDIWGQGTLVTVSS
VL: DIVMTQSPLSLPVTPGEPASISCRSSQSLLHGDGYNYLDWYLQRPGRSPQLLIYLGSHRASGVPDRFSGSGSGTDFTLRISRVEAEDVGIYYCMQGLQTPFTFGPGTKVDIK
B19: F6-213 (antibody, V domains shown)
VH: QEQLVQSGAEVKRPGTSVKVSCKASGYAFTDYSIHWVRQAPGVGLEWMGKIYPGDGHALYAQNFQGRVTLTRDTSTASVYMELRSLRSQDTAVYYCVAYERATTLAGAGASDIWGQGTMVTVSS
VL: B18 VL with H31Q, G32S, L38M, R44K, E84K, G96S, T99S

For one experiment, the target named is RSV A2 pre-F (RSV A2). The experiment in a line: BLI. A general note: Biolayer interferometry detects binding as a change in optical thickness at a sensor tip.
B1 showed a Kd of 0.671 nM.
The same measure, in the same setting: next, B2: 0.783 nM.
On the same count and under the same terms, next, B3: 1.38 nM; B4: 0.86 nM.

A further experiment addresses RSV A2 pre-F (RSV A2). Description: BLI. This is another data set of the same source.
B5 showed a Kd of under 0.001 nM.
The same measure, in the same setting: the figure for B6 is 3.25 nM; for B7 it is under 0.001 nM.
With B8, the Kd was 2.11 nM.
On the same count and under the same terms, next, B9: 0.0669 nM; B10: 0.169 nM.
Same read-out and setting: next, B11: 0.106 nM; B12: under 0.001 nM.
On the same count and under the same terms, next, B13: 0.291 nM; B14: under 0.001 nM.
In turn, B15 returned a Kd of 0.0533 nM.
On the same count and under the same terms, the figure for B16 is under 0.001 nM; for B17 it is under 0.001 nM.
Still for that read-out and setting: the figure for B18 is 0.815 nM.
The same measure, in the same setting: next, B19: 1.29 nM.

The next experiment deals with RSV A2 pre-F (RSV A2). The experiment in a line: ELISA.
The molecule B1 displayed an EC50 of 0.00987 µg/mL.
Still for that read-out and setting: the figure for B2 is 0.0161 µg/mL; for B3 it is 0.00712 µg/mL.
Still for that read-out and setting: the figure for B4 is 0.0169 µg/mL.

The next experiment addresses RSV A2 pre-F (RSV A2). The experiment in a line: ELISA. The source holds these as a separate data set. For orientation: ELISA stands for enzyme-linked immunosorbent assay.
B5 gave an EC50 of 0.0183 µg/mL.
The same measure, in the same setting: the figure for B6 is 0.0613 µg/mL; for B7 it is 0.0117 µg/mL; for B8 it is 0.0585 µg/mL.
Regarding B9, the EC50 is 0.0494 µg/mL.
On the same count and under the same terms, next, B10: 0.0226 µg/mL; B11: 0.0281 µg/mL; B12: 0.0167 µg/mL.
The same measure, in the same setting: the figure for B13 is 0.0354 µg/mL; for B14 it is 0.018 µg/mL; for B15 it is 0.0198 µg/mL.
Same read-out and setting: next, B16: 0.0147 µg/mL; B17: 0.0166 µg/mL; B18: 0.0289 µg/mL.
The molecule B19 registered an EC50 of 0.0298 µg/mL.

Broadly, the Kd is the equilibrium constant for the complex coming apart. A low value points to tighter binding. What is called EC50 is the concentration at which the effect is half-maximal. Low readings indicate greater potency, high ones weaker potency.
